The DeepSol protein solubility set

assay: soluble on expression in E. coli; label from the status in PepcDB or PDB records

Sequence | soluble on expression in E. coli
MKGSASTKPGGSPSTSRTAHPARANTSGNASTSGKQPQGPRAPVHAKGKPKRGGAEAEATESDKVAYTVIITNVENDFGKLHRACLPYYCGLRSDYEGTLDVERLLHEGGPQSRRLIGAVRGCSYAVRCRTETRSAEISLYGPANADFAPMQLTKAPRRPSTPAADAKSMAAPTTSSSEKLAQKDTTAPAEDVSEETALANVGAVEQLALRLRRQHYFEEHLPVSVHLPGRKADEVLLRIDKGSASSDADGTNATGVKNEEANGVAEDADADRRGSAATPVTASASREKRQRVVEEDRNADAPSLQRVKAEAPDGDEEGTEEDSATAHERGKTTENDVDRRADNGGRRSRRLTKSKSATIIAQFPRRQKDFVTAVAALSSRVPLQRVRGRLRDLPGFLSCWSLYERHLRVVFRDAESLFKAKQLLDQFELEPGLRVSLIFSDPLSRTNAEYLRAQENESVNE | not soluble
MGSDKIHHHHHHVTEPLKFQWCDRLGDLPREDWNAIAQPLATPFLEWDWLHDLEASGSVIAKAGWQPCHLVVWRGDRLVAAAPLYLKGHSYGEFVFDQQWADLAGRLGLRYYPKLLGMTPLTPAVGYRFLIAPAEDEATLTGLMLREIDRFCDNNQILSCNFLYVDPDWQPLVEAAGYSAWQHHNSVWQNRGFRTFDDYLGMFNANQRRNIKREVKSMERAGLTLTCLSGDQIPRDYFPLMYRFYSDHCDKFGWWGSKYLTRDFFDRAMHHSRHRLLFVAATPEGSDRPIAMSFCVHKGDRLYGRYWGCDHEIDNLHFNVCYYKPIEWAIANGIQSFDPGAGGSHKKRRGFPATPNWSLHRWYQPRFGQILGTWLRQVNELESQEIEAINAELPFSRPEVPLN | not soluble
MSLNNHKHARLTRLGRALLVNRVMQQNWTMRQASQAAGVSLRTGYKWLARFRSEGLDGLLDRSSRPHRSPKACAPEQVEHFAQQRRQRLPLWRIAREAGRSLATVARYMERIGLSRLASLEPPAPVRRYERASPGELLHIDTKRLGRIRGVGHRITGDRAQNRNRGIGWDAVHLAIDDFSRVSFARILDDEGGDQCAEFLHQATAYYASLGVRIDRVMTDNGSGYVSRTFRAVCVELGIRHIRTRPYTPKTNGKAERLVQTCLREWAYARPYTSSAERQAALQPFIDRYNWCRPHSALGHQPPITRIPDVNNLLRIDSEGHHHHHH | not soluble
AIAFRSVLVEAAVRVESPLLAHRLEDALLHACKQRFCSRILPSLGVCLTALRICKLVDGAGKQLALEIWPVEVSGGGLRARVHVELLLWSPLPHELAFAQVRSCSRFGIRLSILNGFDYAFVPPGSMPEPCTYHEEQRCWSWRFNEDDFVIGEGDWVRVLIERVEYATDSAMATFDSPGTVGSGPPLHILPPPVPVGRTVMETDQANATPGAHPEHAPPLETEPPEFWETPSILPLRVWARLDAPGLGPIDWWS | soluble
MSLYRHIPLVALSLFSSLFLAACGNGTPPPAAARPAIVVQPQPAGEVSQAFPGEIRARHEPELAFRIGGKVIRRLVEVGERVKKDQPLAELDPQDVRLQLEAARAQVSAAEANLQTVRAEYRRYRTLLDRNLVSHSQFENIQNSYRAGEARLKQIRAEFNVADNQAGYAVLRSPQDGVIASRRVEVGQVVAAGQTVFSLAADGEREVLIGLPEHSFERFRIGQPVSVELWSQRDRRFAGHIRELSPAADPQSRTFAARVAFDDRATPAELGQSARVYVAAAEAVPLSVPLSALTAEAGQAFVWVVEPGSSTLRRQPVRTGPYAEDRVPVLEGLKAGDWVVATGVQVLREGQQVRPIDRANRTVKLAAKEEGHHHHHH | soluble
MGSDKIHHHHHHMGSLAVIDAPGWYETIRMADGVTLIHEPWIKPFFRCNIWHVRGRDRDLLFDTGLGHFSLRTHVPLVTERKLTCVASHTHFDHIGCHHEFPDRGVHPAEAKILADPRNEWTVADRYATDDMFDGLPQGWESSRYRILPAPADRLLDHGDVVDLGDRAFEVIHTPGHSPGGIALYEKKTGILLSGDIIYDGPLIDDVYHSDIPDYMATLLAMRELDVSVVHGGHFPSFGKVRYRQLIDEYLAQKRRAGCHLRQRP | not soluble
MGSDKIHHHHHHMKKNVQIKGTKSGISIFLSDKASISELQQELSQLLADQKQNPYSGEKLEVQVQIGNRLFSEEEEREISTIIHNNSQMKISAFYSNVMSKDEAKKWKENDQIFSMATIIRSGQVVQVPGDFLLIGDVNPGGQIRSNGNVFVLGNIKGIIHAGFEGDENAVVAGKFLYPSQVRIAGKVYGFDSEDYKEVADTDLFSAFVNDAGEIVIDEIHKIRKIRPEISNFQGGR | not soluble
MAVSFKVKERKVMINGQPAKIRYAQTLKTGDMDLSEICDLTSKISAVSEGDVRSIINTVTGLVITGLKQGRAISLGELGRFRISLSSKAAKEGEEFTVENIRRARVLFLPGGDIRRACRQIRLKGINMLRPGEQQGGTPSVPDSPEGGGEQGSGGGGL | not soluble
MAFELPKLPYAFDALEPHFDKETMEIHHDRHHNTYVTKLNAAVEGTDLESKSIEEIVANLDSVPANIQTAVRNNGGGHLNHSLFWELLSPNSEEKGTVVEKIKEQWGSLEEFKKEFADKAAARFGSGWAWLVVNNGQLEIVTTPNQDNPLTEGKTPILGLDVWEHAYYLKYQNKRPDYIGAFWNVVNWEKVDELYNATK | not soluble
MAHHHHHHMANAELVDAGCFITQMNELLLIDPLYINCTMTNYCNSYISGKEKLLPRERLNGIYFKNAKPGLWSSFAIRENNQACLKKTSNQETETDAENRNNNNSYNNVRNEMVLSFICFNNTEYMHEYLTVEKVDKLKWEKVKPNESHLRVGQADQYNSTVNIEYKNEKTGIFHHNKNELLPLENYFTNVLTIESGQVGLFCMESIKHSADLLFQKHEMNNISNKEELDNLFNQNMNDLYPWFEKICNLTLSSSVAVVDFIDMPIGCVCLSSSDCVVNYLCEVVRDEVTDEVWAIRVNFLSPLK | soluble
MIKRNLLVMGLAVLLSACGFQLRGTGTTELAIKELDVSARNAYGETVTQLTRLLTSSGVKVYTGAPYKLILTSENETQRTISFSGSGRSAEYQLTNTLTYEIHGDRDRLLLDNKVSADRSYVHDGNNLTGSDQEASQVRQEMRNDLIQKLMARLQQLTPSRLDELQAKADAVAKAEADALEAAQRIRDETPQQSPVEVPARLEHHHHHH | not soluble
MSLSIPREFSNAIRFLSIDATLKAKSGHPGMPMGMADIATVLWTKFLKHNPNNPHWINRDRFVLSNGHGSMLLYSLLHLTGYDLSIEDIKNFRQLHSKTPGHPEYGYTPGVETTTGPLGQGVANAVGMALGEKLLSDRYNTPDLKVIDHHTYVFLGDGCLMEGVSHEACSLAGTLGLNKLVAFWDDNNISIDGDTKGWFSDNTPERFRAYGWHVIENVDGHDFVAIEKAINEAHSQQQKPTLICCKTVIGFGSPEKAGTASVHGSPLSDQERASAAKELNWDYQAFEIPQDVYKYWDAREKGQALEANWQGQRNLFKDSPKFDEFERVLSKELPVGLESAINDYIASQLSNPVKVATRKASQMVLEVLCKNMPEMFGGSADLTGSNNTNWSGSVWLNNTQEGANYLSYGVREFGMAAIMNGLSLYGGIKPYGGTFLVFSDYSRNAIRMSALMKQPVVHVMSHDSIGLGEDGPTHQPIEHVPSLRLIPNLSVWRPADTIETMIAWKEAVKSKDTPSVMVLTRQNLMPVVQTQHQVANIARGGYLVKDNPDAKLTIVATGSEVELAVKVANEFEKKGIKLNVASIPCVEVFATQAHEYKKTVIKDDIPAVFVEMAQPDMWYKYMPKAGGEVKGIYSFGESAPAEDLFKRFGFTVENISNIVAKYV | soluble
MARIRARGSIPDINAYTGSNVTLKIHKDPLGPYRRITWLHTKNQKILEYNYNSTKTIFESEFKGRVYLEENNGALHISNVRKEDKGTYYMRVLRETENELKITLEVFDPV | soluble
MGSDKIHHHHHHSDEEDGGSGGNLIYGGVSVSQEVLAHKPMLEKYAREYGIEEYLNVLLAIIQVESGGTLEDVMQSSESLGLPPNSLSTEESIKQGCKYFSELLAAAETKGCDLNSVIQSYNYGGGFLDYVAGHGKKYTFELAESFARDKSGGKKVTYTNPVAVEKNGGWRYSYGNMFYVLLVSQYLTVAQFDDETVQAIMEEALKYEGWTYVYGGDSPSTSFDCSGLVQWCYGKAGIALPRTAQEQYNVTQHIPLSEAKAGDLVFFHSTYNAGTYITHVGLYVGNNRMYHAGNPIGYADLTGSYWQQHLAGAGRIKQ | not soluble
MKHHHHHHMTFPGDTAVLVLAAGPGTRMRSDTPKVLHTLAGRSMLSHVLHAIAKLAPQRLIVVLGHDHQRIAPLVGELADTLGRTIDVALQDRPLGTGHAVLCGLSALPDDYAGNVVVTSGDTPLLDADTLADLIATHRAVSAAVTVLTTTLDDPFGYGRILRTQDHEVMAIVEQTDATPSQREIREVNAGVYAFDIAALRSALSRLSSNNAQQELYLTDVIAILRSDGQTVHASHVDDSALVAGVNNRVQLAELASELNRRVVAAHQLAGVTVVDPATTWIDVDVTIGRDTVIHPGTQLLGRTQIGGRCVVGPDTTLTDVAVGDGASVVRTHGSSSSIGDGAAVGPFTYLRPGTALGADGKLGAFVEVKNSTIGTGTKVPHLTYVGDADIGEYSNIGASSVFVNYDGTSKRRTTVGSHVRTGSDTMFVAPVTIGDGAYTGAGTVVREDVPPGALAVSAGPQRNIENWVQRKRPGSPAAQASKRASEMACQQPTQPPDADQTP | soluble
MHCSLYTRFNVENAGGDFSVGGARVCFRIPENPCSPRPAVAGRANPLPPVADFGMKEVRTKKKKHMTNDVNGMKKKCGRPALGRTRKLTRGVTVKFSPVSYEALRFRAGKSGRSLAVYIREAALAATVTARHTPEENALLRSLAGMANNLNQLTKLSHQTGFYRTRLLIEGLLGKLKRIMDDYRPKGG | not soluble
MDSRSLSVHDGAMQTLTVPDSGLAPLLPGQRLARGVCRHLRSHDFVSVVELVPAPGLRVDVMALGPKGEIWVVECKSSRADYQSDRKWQGYLDWCDRFFFAVDEAFPVDLLPEGTGLMLADGYDAEILRIGPEGRLAPARRKAVIQGFARHAALRLQGLRDPGAFPG | not soluble
MALVFVYGTLKRGQPNHRVLRDGAHGSAAFRARGRTLEPYPLVIAGEHNIPWLLHLPGSGRLVEGEVYAVDERMLRFLDDFESCPALYQRTVLRVQLLEDRAPGAEEPPAPTAVQCFVYSRATFPPEWAQLPHHDSYDSEGPHGLRYNPRENR | soluble
MFISDKSRPTDFYKDDHHNSSTTSTTRDMMIDVLTTTNESVDLQSHHHHNHHNHHLHQSQPQQQILLGESSGEDHEVKAPKKRAETWVQDETRSLIMFRRGMDGLFNTSKSNKHLWEQISSKMREKGFDRSPTMCTDKWRNLLKEFKKAKHHDRGNGSAKMSYYKEIEDILRERSKKVTPPQYNKSPNTPPTSAKVDSFMQFTDKGFDDTSISFGSVEANGRPALNLERRLDHDGHPLAITTAVDAVAANGVTPWNWRETPGNGDDSHGQPFGGRVITVKFGDYTRRIGVDGSAEAIKEVIRSAFGLRTRRAFWLEDEDQIIRCLDRDMPLGNYLLRLDDVCKTHLAGLAIRVCHYDESNQLPVHSEEKIFYTEEDYREFLARQGWSSLQVDGFRNIENMDDLQPGAVYRGVR | soluble
MKKQSCSHTTEDVPFPQANRRKFLQLAALGSSIGLFSVVSGISEARAEKKAGTLLLSCMDYRLMDEIERYMLRRGLYHNYDHIVLAGASLGAVTDKYPAWSRTFWDHLDLAVNLHEIHTVMVMDHRDCGAYKILLGEDYSKDTDRETAEHTIKLTQLKDMINKKYPKIEVETLLMGLNGEVEAIPTAVAKQG | not soluble
MSLNQKDPVTDDITGGWYEQDIRQLAARGIMQGEGNGKYFPERLVTRAEFATLITRALQLPSGNAKFTDLEQVHPSLRDGINRAASAGIIRGRGDNTFDPNTTITREEAVIMIDRSLKHAGIFAKQVELPFVDQNLIYAKQEVQRVYGFGIVKGNEFNQFVPKGPSQRAHAAAFINRMLSVIEAEGHHHHHH | soluble
